From IntAct's records for PubMed 21946561

B1: Neuronal tyrosine-phosphorylated phosphoinositide-3-kinase adapter 1 (Mus musculus), Q6PFX7 (parent)
chain: MNLLYRKTKLEWRQHKEEEAKRSSSKEAAPTGPVGPGAVPGPGVRVRDIASLRRSLRMGFMTMPASQEHTPHPCRSTMAPRSLSCHSVGSMDSVGGGPGGGLTEDSSTRRPPAKPRRHPSTKLSMAGPGAETPPSKKAGSQKPAPECRESSRKVPPQKPRRSPNTQLSVSFDESCAPAPSPRGANLPLQRLSRASRITGDLDAGAQEEEPVYIEMVGDVFRGGGRSGGGLAGPPLGSGGPTPPAAADSDSEDSEAIYEEMKYPLPEEAGDGRANGPPPLTAPSPPQQTHILQPHPHPHRRPASALPSRRDGTPTKTTPCEIPPPFPNLLQHRPPLLAFPQAKSASRAPGDGVSRLPVLCHSKEPAGSTPAPQVPARERETPPLPPPPPAANLLLLGPSGRARSHSTPLPPQGSGQTRGERELPNSHSMICPKAAGVPAAHPAPAALLPGPPKDKAVSYTMVYSAVKVTTHSVLPAGPPLGVGEPKTEEISVLHGMLCASSRPPVPGKSSPHSGAMGSAAGVLHHRSCLASPHSLPDPTGGSLTPLWTYPATAAGLKRPPAYDSLKAGGVLNKGCGMGAPSPMVKIQLQEQGTDGGAFASISCAHVIASAGTPEEEEEMGAAFGAGWALQRKVLYGGRKAKEVDTEEDGARAWNGSTEGPGKVEHEDRGPVPSGIPVRSQGAEGLLARIHHDRGGSRTALPVPCQTFPACHRNGDFTGGYRLGRSASTSGVRQAALHTPRPCSQPRDALSQTHPVLPLPLPPQPARERDGKLLEVIERKRCVCKEIKARHRPDRGLCKQESMPILPSWRRVPEPRKSGTPPCRRQHTVLWDTAI
B2: Neuronal tyrosine-phosphorylated phosphoinositide-3-kinase adapter 2 (Mus musculus), Q8BM65-4 (parent)
chain: MIPSKMMSANPEEDPLDTFFQYIEDMGMKAYDGLVIQNASDIARENDRLRNETKLAYLKEKNEKRRRQEETIKRIGGEVGRGQDASYAGKHFRMGFMTMPAPQDRLPHPCSSGFTVRSQSLHSVGGTEDDSSCGSRRQPPPKPKRDPSTKLSTSSETVNSTAASKSGRSLERAEGKFTVPASHSPPRASTSGHLFPSPGSQERNIKVSAKPRPHSDEYSKKIPPPKPKRNPNTQLSTSFDETYIKKHVPRRTSLPRDSSLSQVCSPAADPEEEEPVYIEMVGNILRDFRKEEDDQSEAVYEEMKYPIFDDLGHDSKCDFDHHSCSSQCATPTVPDLDFVKSSGPCTPKGLLCDIPPPFPNLLSHRPPLLVFPPAPVHCSPNSDESPLTPLEVTKLPVLENVSYMKQPPGACPSSLPSHGSSHAKDQTGALGPAPGASILSSSPPPPSTLYRTQSPHGYPKSHSTSPSPVSMGRSLTPLSLKRPPPYDAVHSGSLSRSSSSVPHTTPRPVSQDGAKMVNAAVNTYSAAQSGSRSRTPTSPLEELTSLFTSGRSLLRKSSSGRRSKEPAEKSTEELKVRSHSTEPLPKLDSKERGHYGSSSSREPVKAQEWDGTPGPPVVTSRMGRCSVSPTLLAGNHSSEPKVSCKLGRSASTSGVPPPSVTPLRQASDLQQSQVACMQWFHGDHTMLEMIEKKRCLCKEIKARQKTEKGLCKQDSMPILPSWKKNAGAKKYSPPPYSKQQTVFWDTAI

Variants of: B1
Conditions: with p85a_human PIK3R1, P27986
Target sequence in this assay (P27986 whole entry): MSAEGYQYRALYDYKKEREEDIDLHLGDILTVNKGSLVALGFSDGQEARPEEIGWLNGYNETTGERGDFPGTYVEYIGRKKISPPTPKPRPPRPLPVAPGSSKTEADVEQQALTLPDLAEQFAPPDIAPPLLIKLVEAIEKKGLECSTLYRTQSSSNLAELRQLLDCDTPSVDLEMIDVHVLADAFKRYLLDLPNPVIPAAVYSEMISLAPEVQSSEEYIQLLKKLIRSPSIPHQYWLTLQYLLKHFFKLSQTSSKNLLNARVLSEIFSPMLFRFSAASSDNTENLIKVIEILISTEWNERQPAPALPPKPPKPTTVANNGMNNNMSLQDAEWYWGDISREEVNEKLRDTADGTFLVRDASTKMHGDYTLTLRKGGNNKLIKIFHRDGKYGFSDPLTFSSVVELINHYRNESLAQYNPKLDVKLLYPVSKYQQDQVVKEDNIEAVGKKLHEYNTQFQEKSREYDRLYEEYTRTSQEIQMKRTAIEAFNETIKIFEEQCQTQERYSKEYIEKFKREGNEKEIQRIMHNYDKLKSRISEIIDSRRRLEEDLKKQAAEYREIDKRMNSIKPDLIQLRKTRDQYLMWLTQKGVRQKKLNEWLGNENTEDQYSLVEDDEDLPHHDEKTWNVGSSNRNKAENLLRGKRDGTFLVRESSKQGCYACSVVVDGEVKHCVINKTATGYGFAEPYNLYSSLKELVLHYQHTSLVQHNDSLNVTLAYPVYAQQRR

Variant	effect of a mutation on the interaction
Y212F	disrupting interaction
Y257F	disrupting interaction

Variants of: B1
Conditions: with p85a_human PIK3R1, P27986
Remark: another data set of the same source
Target sequence in this assay (P27986 whole entry): as above

Variant	effect of a mutation on the interaction
Y257F	decreasing interaction

Variants of: B2
Conditions: with p85a_human PIK3R1, P27986
Target sequence in this assay (P27986 whole entry): as above

Variant	effect of a mutation on the interaction
Y277F	disrupting interaction
Y300F	disrupting interaction
